Target: CRY1(Human)-3×FLAG (human) (UniProt Q16526)
Experiment: co-IP

Sequence of UniProt Q16526 (Q16526 whole entry): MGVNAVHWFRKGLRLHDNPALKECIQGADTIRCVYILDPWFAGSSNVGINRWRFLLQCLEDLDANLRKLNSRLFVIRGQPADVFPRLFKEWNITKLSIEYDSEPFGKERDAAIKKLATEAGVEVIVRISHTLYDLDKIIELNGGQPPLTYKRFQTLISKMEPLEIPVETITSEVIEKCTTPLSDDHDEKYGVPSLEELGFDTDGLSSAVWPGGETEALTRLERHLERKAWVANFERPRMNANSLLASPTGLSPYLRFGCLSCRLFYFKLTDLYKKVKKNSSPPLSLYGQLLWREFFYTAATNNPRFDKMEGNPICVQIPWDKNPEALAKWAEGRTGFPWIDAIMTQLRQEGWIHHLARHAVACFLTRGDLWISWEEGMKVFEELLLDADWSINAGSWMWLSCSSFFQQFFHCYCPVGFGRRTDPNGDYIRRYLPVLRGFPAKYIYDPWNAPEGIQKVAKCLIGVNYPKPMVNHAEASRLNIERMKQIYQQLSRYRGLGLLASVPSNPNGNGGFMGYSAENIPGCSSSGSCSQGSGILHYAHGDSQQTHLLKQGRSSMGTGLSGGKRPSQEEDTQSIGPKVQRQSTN

PER2(Loris)-3×HA (natural protein)
ability to bind with CRY in co-IP (quantity and unit not named): 35.2
